{"source": "paper PMC5748983", "molecular_target": "GST-DENN-4 (C. elegans)", "experiment": "pull-down"}
{"binder": "HA-RAB-10(T23N) (natural protein) MARRPYDMLFKLLLIGDSGVGKNCILYRFSDDAFNTTFISTIGIDFKIKTIELKGKKIKLQIWDTAGQERFHTITTSYYRGAMGIMLVYDITNAKSFDNIAKWLRNIDEHASEDVVKMILGNKCDMSDRRVVSRERGEKIAQDHGISFHETSAKLNVHVDTAFYDLAEAILAKMPDSTDEQSRDTVNPVQPQRQSSSGGCC", "values": [{"measurement": "fold increase of pull-down with HA-LET-413 added, against without", "result": 3, "unit": "fold"}]}
